In article PMC4822050 (2016):
Positions count from the first letter of the chain named. Non-standard residues stand in square brackets, D forms with d. No end group written: not given here. pS = N[C@@H](COP(=O)(O)O)C(=O)O

T1: SRA–Spacer of UHRF1 (residues 414–674) (human, UniProt Q96T88 414-674)
T1 chain: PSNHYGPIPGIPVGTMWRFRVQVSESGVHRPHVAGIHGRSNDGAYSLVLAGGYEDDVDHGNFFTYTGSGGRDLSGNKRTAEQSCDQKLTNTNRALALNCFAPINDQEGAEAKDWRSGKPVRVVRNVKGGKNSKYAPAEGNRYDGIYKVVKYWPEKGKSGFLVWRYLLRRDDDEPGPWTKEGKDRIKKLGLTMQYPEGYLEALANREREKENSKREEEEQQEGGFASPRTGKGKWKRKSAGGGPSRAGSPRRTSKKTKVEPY

T2: Spacer^Δ650–654 (human, UniProt Q96T88 587-674, Δ650–654)
T2 sequence: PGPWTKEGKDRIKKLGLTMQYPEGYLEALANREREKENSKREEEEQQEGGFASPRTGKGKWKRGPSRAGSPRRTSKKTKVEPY

T3: Spacer^Δ642–651 (human, UniProt Q96T88 587-674, Δ642–651)
T3 sequence: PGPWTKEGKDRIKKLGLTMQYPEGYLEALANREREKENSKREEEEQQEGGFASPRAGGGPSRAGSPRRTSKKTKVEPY

T4: Spacer^Δ670–674 (human, UniProt Q96T88 587-674, Δ670–674)
T4 sequence: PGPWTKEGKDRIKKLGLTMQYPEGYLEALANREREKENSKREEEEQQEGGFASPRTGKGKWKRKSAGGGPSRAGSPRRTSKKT

T5: Spacer^Δ655–659 (human, UniProt Q96T88 587-674, Δ655–659)
T5 sequence: T2 sequence with G64K, P65S, S66A, R67G, A68G

T6: Spacer^Δ665–669 (human, UniProt Q96T88 587-674, Δ665–669)
T6 sequence: T4 sequence with T79K, S80V, K81E, K82P, T83Y

T7: Spacer^Δ660–664 (human, UniProt Q96T88 587-674, Δ660–664)
T7 sequence: T2 sequence with G64K, P65S, S66A, R67G, A68G, S70P, P71S, R73A

T8: Spacer K648D (human, UniProt Q96T88 587-674, K648D)
T8 sequence: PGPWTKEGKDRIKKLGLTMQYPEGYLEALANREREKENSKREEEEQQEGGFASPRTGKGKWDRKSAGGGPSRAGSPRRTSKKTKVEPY

T9: Spacer S666D (human, UniProt Q96T88 587-674, S666D)
T9 sequence: T8 sequence with D62K, S80D

T10: Spacer R649A (human, UniProt Q96T88 587-674, R649A)
T10 sequence: T8 sequence with D62K, R63A

T11: Spacer S639D (human, UniProt Q96T88 587-674, S639D)
T11 sequence: T8 sequence with S53D, D62K

T12: Spacer S651D (human, UniProt Q96T88 587-674, S651D)
T12 sequence: T8 sequence with D62K, S65D

B1: peptide of Spacer^642–664 phosphorylated at S651 (peptide)
peptide: TGKGKWKRK[pS]AGGGPSRAGSPRR
B2: unmodified peptide of Spacer^642–664 (peptide)
peptide: TGKGKWKRKSAGGGPSRAGSPRR
B3: TTD of UHRF1 (residues 134–285) (domain or fragment)
chain: LYKVNEYVDARDTNMGAWFEAQVVRVTRKAPSRDEPCSSTSRPALEEDVIYHVKYDDYPENGVVQMNSRDVRARARTIIKWQDLEVGQVVMLNYNPDNPKERGFWYDAEISRKRETRTARELYANVVLGDDSLNDCRIIFVDEVFKIERPGE
B4: Spacer^642–674 (domain or fragment)
chain: TGKGKWKRKSAGGGPSRAGSPRRTSKKTKVEPY
B5: Spacer of UHRF1 (residues 587–674) (domain or fragment)
chain: T8 sequence with D62K

Columns and labels:
[1] = target: B3; test: ITC; phosphorylated S651
[2] = target: B3; test: ITC
[3] = target: T1, SRA–Spacer of UHRF1 (residues 414–674); test: ITC
[4] = target: B5; test: ITC
Spacer^Δ650–654 = target: T2, Spacer^Δ650–654; test: ITC
Spacer^Δ642–651 = target: T3, Spacer^Δ642–651; test: ITC
Spacer^Δ670–674 = target: T4, Spacer^Δ670–674; test: ITC
Spacer^Δ655–659 = target: T5, Spacer^Δ655–659; test: ITC
Spacer^Δ665–669 = target: T6, Spacer^Δ665–669; test: ITC
Spacer^Δ660–664 = target: T7, Spacer^Δ660–664; test: ITC
Spacer K648D = target: T8, Spacer K648D; test: ITC
Spacer S666D = target: T9, Spacer S666D; test: ITC
Spacer R649A = target: T10, Spacer R649A; test: ITC
Spacer S639D = target: T11, Spacer S639D; test: ITC
Spacer S651D = target: T12, Spacer S651D; test: ITC
[5] = target: T1, SRA–Spacer of UHRF1 (residues 414–674); test: ITC; in presence of hm-DNA (1:2)
[6] = target: B5; test: ITC; in presence of hm-DNA (1:2)
[7] = target: B3; test: ITC; in presence of Linker
[8] = target: B3; test: ITC; in presence of Linker (TTD:Linker 1:2)

Binder: B1
- Kd [1]: 27800 nM

Binder: B2
- Kd [2]: 1260 nM

Binder: B3
- Kd [3]: 820 nM
- Kd [4]: 2340 nM
- Kd (Spacer^Δ650–654): 3800 nM
- Kd (Spacer^Δ642–651): 11200 nM
- Kd (Spacer^Δ670–674): 950 nM
- Kd (Spacer^Δ655–659): 2980 nM
- Kd (Spacer^Δ665–669): 1850 nM
- Kd (Spacer^Δ660–664): 2470 nM
- Kd (Spacer K648D): 5940 nM
- Kd (Spacer S666D): 1260 nM
- Kd (Spacer R649A): 21400 nM
- Kd (Spacer S639D): 1150 nM
- Kd (Spacer S651D): 8810 nM
- Kd [5]: 143000 nM
- Kd [6]: 2040 nM

Binder: B4
- Kd [2]: 970 nM

Binder: B5
- Kd [7]: 3730 nM
- Kd [8]: 3730 nM
